In patent US20140080757A1 (ZEALAND PHARMA A S, published 2014):
Numbered stars: 1 amine (or outer) side, 2 acyl side, 3 side chain; on linkers, the order of the positions; unused ones are H or OH. Square brackets hold non-standard residues; d marks the D form. Side chains are listed from the residue outwards. * marks the point of attachment. γGlu = O=C(O)[C@H](CCC(=O)[*:2])N[*:1]; Palmitoyl = CCCCCCCCCCCCCCCC(=O)*; Aib = CC(C)(N)C(=O)O

T1: endogenous GLP-1 receptor of a murine insulinoma cell line (murine, UniProt O35659 22-463)
T1 sequence (looked up): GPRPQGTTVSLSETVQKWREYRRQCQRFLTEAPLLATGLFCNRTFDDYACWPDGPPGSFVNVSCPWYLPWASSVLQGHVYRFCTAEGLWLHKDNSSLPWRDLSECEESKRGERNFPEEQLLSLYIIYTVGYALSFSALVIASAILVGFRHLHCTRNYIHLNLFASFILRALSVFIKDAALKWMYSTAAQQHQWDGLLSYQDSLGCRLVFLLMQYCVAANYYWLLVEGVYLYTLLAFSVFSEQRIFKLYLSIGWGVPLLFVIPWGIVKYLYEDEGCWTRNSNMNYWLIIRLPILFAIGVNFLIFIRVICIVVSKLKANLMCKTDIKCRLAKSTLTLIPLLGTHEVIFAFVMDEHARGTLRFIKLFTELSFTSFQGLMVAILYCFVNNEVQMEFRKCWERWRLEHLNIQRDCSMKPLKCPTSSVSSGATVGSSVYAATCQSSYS


What was measured:
Test in all cases: cell-based or functional assay
[1] = molecular target: human glucagon-like peptide 1 receptor (GLP-1R) (human, UniProt P43220 24-463)
[2] = molecular target: human glucagon receptor (Glucagon-R) (human, UniProt P47871 26-477)
Chain of human glucagon receptor (Glucagon-R) (P47871 26-477): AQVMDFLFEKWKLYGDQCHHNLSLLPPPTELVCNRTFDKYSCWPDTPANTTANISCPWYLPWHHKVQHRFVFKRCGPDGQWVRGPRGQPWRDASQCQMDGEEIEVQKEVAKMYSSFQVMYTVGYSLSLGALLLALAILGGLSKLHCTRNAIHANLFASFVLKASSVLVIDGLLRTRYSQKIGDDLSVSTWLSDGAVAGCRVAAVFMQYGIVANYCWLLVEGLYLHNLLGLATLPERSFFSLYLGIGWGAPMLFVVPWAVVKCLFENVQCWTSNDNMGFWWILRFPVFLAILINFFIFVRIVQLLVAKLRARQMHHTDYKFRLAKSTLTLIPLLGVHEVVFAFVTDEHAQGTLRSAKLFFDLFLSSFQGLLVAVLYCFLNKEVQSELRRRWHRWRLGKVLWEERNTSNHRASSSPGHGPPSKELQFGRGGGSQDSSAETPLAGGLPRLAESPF

[3] = molecular target: T1, endogenous GLP-1 receptor of a murine …
[4] = molecular target: endogenous glucagon receptor of primary rat hepatocytes (rat, UniProt P30082 27-485)
Chain of endogenous glucagon receptor of primary rat hepatocytes (P30082 27-485): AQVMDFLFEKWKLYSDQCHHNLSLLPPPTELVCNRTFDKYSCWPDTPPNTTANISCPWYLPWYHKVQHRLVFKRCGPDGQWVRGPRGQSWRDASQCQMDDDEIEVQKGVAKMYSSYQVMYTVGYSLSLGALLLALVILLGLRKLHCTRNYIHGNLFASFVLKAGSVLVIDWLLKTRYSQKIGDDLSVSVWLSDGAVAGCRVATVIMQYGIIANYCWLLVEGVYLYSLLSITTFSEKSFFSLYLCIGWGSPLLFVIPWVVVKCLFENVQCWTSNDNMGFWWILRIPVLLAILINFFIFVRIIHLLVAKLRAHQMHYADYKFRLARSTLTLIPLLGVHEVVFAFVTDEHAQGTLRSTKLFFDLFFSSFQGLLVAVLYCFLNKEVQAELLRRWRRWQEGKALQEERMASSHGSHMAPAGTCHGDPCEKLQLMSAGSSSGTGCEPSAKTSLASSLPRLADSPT

| Binder | EC50 hGLP-1R CHO-K1 [nM] (cAMP) [1] | Ratio GLP-1/Glucagon (EC50 hGLP-1R / EC50 hGCGR) [1] | EC50 hGCGR CHO-K1 [nM] (cAMP) [2] | EC50 GLP-1R (murine insulinoma cells) [nM] (cAMP) [3] | EC50 GLP-1R Rat hepat. [nM] (inhibition of glycogen synthesis) [4] |
| --- | --- | --- | --- | --- | --- |
| H-H[Aib]QGTFTSDYSKYLDSK([γGlu-Palmitoyl])AAHDFVEWLLS-OH (SMILES CCCCCCCCCCCCCCCC(=O)N[C@@H](CCC(=O)NCCCC[C@H](NC(=O)[C@H](CO)NC(=O)[C@H](CC(=O)O)NC(=O)[C@H](CC(C)C)NC(=O)[C@H](Cc1ccc(O)cc1)NC(=O)[C@H](CCCCN)NC(=O)[C@H](CO)NC(=O)[C@H](Cc1ccc(O)cc1)NC(=O)[C@H](CC(=O)O)NC(=O)[C@H](CO)NC(=O)[C@@H](NC(=O)[C@H](Cc1ccccc1)NC(=O)[C@@H](NC(=O)CNC(=O)[C@H](CCC(N)=O)NC(=O)C(C)(C)NC(=O)[C@@H](N)Cc1c[nH]cn1)[C@@H](C)O)[C@@H](C)O)C(=O)N[C@@H](C)C(=O)N[C@@H](C)C(=O)N[C@@H](Cc1c[nH]cn1)C(=O)N[C@@H](CC(=O)O)C(=O)N[C@@H](Cc1ccccc1)C(=O)N[C@H](C(=O)N[C@@H](CCC(=O)O)C(=O)N[C@@H](Cc1c[nH]c2ccccc12)C(=O)N[C@@H](CC(C)C)C(=O)N[C@@H](CC(C)C)C(=O)N[C@@H](CO)C(=O)O)C(C)C)C(=O)O) [Compound 1] | 0.54 nM | 0.6 ratio | 0.9 nM | 1.47 nM |  |
| HXQGTFTSDYSKYLDEXAAKDFIEWLLSA (Aib at position 2; Lys 17 K(Hexadecanoyl-isoGlu); C-terminal amide (-NH2)) [Compound 4] | 0.38 nM | 0.24 ratio | 1.56 nM | 0.95 nM | 0.35 nM |
| H-HSQGTFTSDYSKYLDSK([γGlu-Palmitoyl])AAHDFVEWLLSA-OH (SMILES CCCCCCCCCCCCCCCC(=O)N[C@@H](CCC(=O)NCCCC[C@H](NC(=O)[C@H](CO)NC(=O)[C@H](CC(=O)O)NC(=O)[C@H](CC(C)C)NC(=O)[C@H](Cc1ccc(O)cc1)NC(=O)[C@H](CCCCN)NC(=O)[C@H](CO)NC(=O)[C@H](Cc1ccc(O)cc1)NC(=O)[C@H](CC(=O)O)NC(=O)[C@H](CO)NC(=O)[C@@H](NC(=O)[C@H](Cc1ccccc1)NC(=O)[C@@H](NC(=O)CNC(=O)[C@H](CCC(N)=O)NC(=O)[C@H](CO)NC(=O)[C@@H](N)Cc1c[nH]cn1)[C@@H](C)O)[C@@H](C)O)C(=O)N[C@@H](C)C(=O)N[C@@H](C)C(=O)N[C@@H](Cc1c[nH]cn1)C(=O)N[C@@H](CC(=O)O)C(=O)N[C@@H](Cc1ccccc1)C(=O)N[C@H](C(=O)N[C@@H](CCC(=O)O)C(=O)N[C@@H](Cc1c[nH]c2ccccc12)C(=O)N[C@@H](CC(C)C)C(=O)N[C@@H](CC(C)C)C(=O)N[C@@H](CO)C(=O)N[C@@H](C)C(=O)O)C(C)C)C(=O)O) [Compound 2] | 0.77 nM | 2.48 ratio | 0.31 nM | 1.41 nM | 0.43 nM |
| H-HSQGTFTSDYSKYLDSK([γGlu-Palmitoyl])AAHDFVEWLLRA-OH (SMILES CCCCCCCCCCCCCCCC(=O)N[C@@H](CCC(=O)NCCCC[C@H](NC(=O)[C@H](CO)NC(=O)[C@H](CC(=O)O)NC(=O)[C@H](CC(C)C)NC(=O)[C@H](Cc1ccc(O)cc1)NC(=O)[C@H](CCCCN)NC(=O)[C@H](CO)NC(=O)[C@H](Cc1ccc(O)cc1)NC(=O)[C@H](CC(=O)O)NC(=O)[C@H](CO)NC(=O)[C@@H](NC(=O)[C@H](Cc1ccccc1)NC(=O)[C@@H](NC(=O)CNC(=O)[C@H](CCC(N)=O)NC(=O)[C@H](CO)NC(=O)[C@@H](N)Cc1c[nH]cn1)[C@@H](C)O)[C@@H](C)O)C(=O)N[C@@H](C)C(=O)N[C@@H](C)C(=O)N[C@@H](Cc1c[nH]cn1)C(=O)N[C@@H](CC(=O)O)C(=O)N[C@@H](Cc1ccccc1)C(=O)N[C@H](C(=O)N[C@@H](CCC(=O)O)C(=O)N[C@@H](Cc1c[nH]c2ccccc12)C(=O)N[C@@H](CC(C)C)C(=O)N[C@@H](CC(C)C)C(=O)N[C@@H](CCCNC(=N)N)C(=O)N[C@@H](C)C(=O)O)C(C)C)C(=O)O) [Compound 3] | 0.91 nM | 2.6 ratio | 0.35 nM | 1.06 nM | 0.16 nM |

The remaining lines, values ahead:

| EC50 hGLP-1R CHO-K1 [nM] (cAMP) [1] | Ratio GLP-1/Glucagon (EC50 hGLP-1R / EC50 hGCGR) [1] | EC50 hGCGR CHO-K1 [nM] (cAMP) [2] | EC50 GLP-1R (murine insulinoma cells) [nM] (cAMP) [3] | EC50 GLP-1R Rat hepat. [nM] (inhibition of glycogen synthesis) [4] | Binder |
| --- | --- | --- | --- | --- | --- |
| 0.16 nM | 0.35 ratio | 0.46 nM | 0.54 nM | 0.03 nM | H-H[Aib]QGTFTSDYSKYLDSK([γGlu-Palmitoyl])AAHDFVEWLESA-NH2 (SMILES CCCCCCCCCCCCCCCC(=O)N[C@@H](CCC(=O)NCCCC[C@H](NC(=O)[C@H](CO)NC(=O)[C@H](CC(=O)O)NC(=O)[C@H](CC(C)C)NC(=O)[C@H](Cc1ccc(O)cc1)NC(=O)[C@H](CCCCN)NC(=O)[C@H](CO)NC(=O)[C@H](Cc1ccc(O)cc1)NC(=O)[C@H](CC(=O)O)NC(=O)[C@H](CO)NC(=O)[C@@H](NC(=O)[C@H](Cc1ccccc1)NC(=O)[C@@H](NC(=O)CNC(=O)[C@H](CCC(N)=O)NC(=O)C(C)(C)NC(=O)[C@@H](N)Cc1c[nH]cn1)[C@@H](C)O)[C@@H](C)O)C(=O)N[C@@H](C)C(=O)N[C@@H](C)C(=O)N[C@@H](Cc1c[nH]cn1)C(=O)N[C@@H](CC(=O)O)C(=O)N[C@@H](Cc1ccccc1)C(=O)N[C@H](C(=O)N[C@@H](CCC(=O)O)C(=O)N[C@@H](Cc1c[nH]c2ccccc12)C(=O)N[C@@H](CC(C)C)C(=O)N[C@@H](CCC(=O)O)C(=O)N[C@@H](CO)C(=O)N[C@@H](C)C(N)=O)C(C)C)C(=O)O) [Compound 5] |
| 0.35 nM | 0.76 ratio | 0.46 nM | 1.14 nM | 2.87 nM | H-HSQGTFTSDYSRYLDSK([γGlu-Palmitoyl])AAEDFVEWLLRA-NH2 (SMILES CCCCCCCCCCCCCCCC(=O)N[C@@H](CCC(=O)NCCCC[C@H](NC(=O)[C@H](CO)NC(=O)[C@H](CC(=O)O)NC(=O)[C@H](CC(C)C)NC(=O)[C@H](Cc1ccc(O)cc1)NC(=O)[C@H](CCCNC(=N)N)NC(=O)[C@H](CO)NC(=O)[C@H](Cc1ccc(O)cc1)NC(=O)[C@H](CC(=O)O)NC(=O)[C@H](CO)NC(=O)[C@@H](NC(=O)[C@H](Cc1ccccc1)NC(=O)[C@@H](NC(=O)CNC(=O)[C@H](CCC(N)=O)NC(=O)[C@H](CO)NC(=O)[C@@H](N)Cc1c[nH]cn1)[C@@H](C)O)[C@@H](C)O)C(=O)N[C@@H](C)C(=O)N[C@@H](C)C(=O)N[C@@H](CCC(=O)O)C(=O)N[C@@H](CC(=O)O)C(=O)N[C@@H](Cc1ccccc1)C(=O)N[C@H](C(=O)N[C@@H](CCC(=O)O)C(=O)N[C@@H](Cc1c[nH]c2ccccc12)C(=O)N[C@@H](CC(C)C)C(=O)N[C@@H](CC(C)C)C(=O)N[C@@H](CCCNC(=N)N)C(=O)N[C@@H](C)C(N)=O)C(C)C)C(=O)O) [Compound 6] |
| 0.64 nM | 1.05 ratio | 0.61 nM | 1.01 nM |  | H-H[Aib]QGTFTSDYSKYLDEK([γGlu-Palmitoyl])RAKDFIEWLLS-OH (SMILES CCCCCCCCCCCCCCCC(=O)N[C@@H](CCC(=O)NCCCC[C@H](NC(=O)[C@H](CCC(=O)O)NC(=O)[C@H](CC(=O)O)NC(=O)[C@H](CC(C)C)NC(=O)[C@H](Cc1ccc(O)cc1)NC(=O)[C@H](CCCCN)NC(=O)[C@H](CO)NC(=O)[C@H](Cc1ccc(O)cc1)NC(=O)[C@H](CC(=O)O)NC(=O)[C@H](CO)NC(=O)[C@@H](NC(=O)[C@H](Cc1ccccc1)NC(=O)[C@@H](NC(=O)CNC(=O)[C@H](CCC(N)=O)NC(=O)C(C)(C)NC(=O)[C@@H](N)Cc1c[nH]cn1)[C@@H](C)O)[C@@H](C)O)C(=O)N[C@@H](CCCNC(=N)N)C(=O)N[C@@H](C)C(=O)N[C@@H](CCCCN)C(=O)N[C@@H](CC(=O)O)C(=O)N[C@@H](Cc1ccccc1)C(=O)N[C@H](C(=O)N[C@@H](CCC(=O)O)C(=O)N[C@@H](Cc1c[nH]c2ccccc12)C(=O)N[C@@H](CC(C)C)C(=O)N[C@@H](CC(C)C)C(=O)N[C@@H](CO)C(=O)O)[C@@H](C)CC)C(=O)O) [Compound 11] |
